Data: PMC5823975, “Ubiquitin-Mediated Regulation of RIPK1 Kinase Activity Independent of IKK and MK2” (Molecular Cell, 2018)
Like-named read-outs stand apart in the source and are kept apart here.

What was measured:
[1] = molecular target: cIAP2 BIR1 (Homo sapiens) (UniProt Q13489); details: cited from earlier work
[2] = molecular target: T1, TRAF2 segment (recombinant, ITC) (human, UniProt Q12933 1-501); assay: ITC; cIAP2 protein (2-4 mM) injected into 0.20 mM TRAF2; 16°C; 25 mM Tris-HCl pH 8.0, 150 mM NaCl; MicroCal ITC200
T1 construct: human TRAF2 segment; it compares with Zheng et al. (2010); source: E. coli BL21 (DE3), purified (Ni-Sepharose, HiTrap Q, Superdex 200); not shown: His-SUMO, N-terminal, cleaved
T1 sequence (looked up): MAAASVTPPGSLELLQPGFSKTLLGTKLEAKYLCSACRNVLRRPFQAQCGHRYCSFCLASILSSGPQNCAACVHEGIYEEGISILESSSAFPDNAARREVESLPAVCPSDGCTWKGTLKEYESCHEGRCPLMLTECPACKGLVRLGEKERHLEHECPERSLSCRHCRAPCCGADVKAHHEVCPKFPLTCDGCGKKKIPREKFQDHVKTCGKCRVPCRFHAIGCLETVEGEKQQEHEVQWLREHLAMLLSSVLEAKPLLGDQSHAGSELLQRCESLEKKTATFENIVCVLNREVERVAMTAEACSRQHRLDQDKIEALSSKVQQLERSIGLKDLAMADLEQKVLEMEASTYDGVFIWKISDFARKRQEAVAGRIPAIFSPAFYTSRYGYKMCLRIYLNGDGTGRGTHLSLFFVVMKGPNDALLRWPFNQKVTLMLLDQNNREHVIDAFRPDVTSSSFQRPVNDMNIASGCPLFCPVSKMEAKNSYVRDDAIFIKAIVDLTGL

TRAF2 (from UniProt Q12933)
Kd [1]: 1700 nM

UBA domain of cIAP2 (from UniProt Q13489 372-425) (domain or fragment)
Kd [2]: 480000 nM

B1: cIAP2 segment with the BIR1 in conjunction with the UBA domain (domain or fragment)
chain: LSCELYRMSTYSTFPAGVPVSERSLARAGFYYTGVNDKVKCFCCGLMLDNWKRGDSPTEKHKKLYPSCRFVQSLNSVNNLEATSQPTFPSSVTNSTHSLLPGTENSGYFRGSYSNSPSNPVNSRANQDFSALMRSSYHCAMNNENARLLTFQTWPLTFLSPTDLAKAGFYYIGPGDRVACFACGGKLSNWEPKDNAMSEHLRHFPKCPFIENQLQDTSRYTVSNLSMQTHAARFKTFFNWPSSVLVNPEQLASAGFYYVGNSDDVKCFCCDGGLRCWESGDDPWVQHAKWFPRCEYLIRIKGQEFIRQVQASYPHLLEQLLSTSDSPGDENAESSIIHFEPGEDHSEDAIMMNTPVINAAVEMGFSRSLVKQTVQRKILATGENYRLVNDLVLDLLNAEDEIREEERERAT
modifications: Zn2+ bound by the BIR domains
Kd ([2]; both partners purified): 430 nM
